Measured values: the supplement of paper PMC10567573
± gives the standard deviation.

Test: protein stability index of a GFP-peptide fusion (GPS, HEK-293T) (PSI 1-6); higher = more stable
[1] = treatment: DMSO, c terminus: a fixed tail appended
[2] = treatment: MLN4924 1 uM, 8 h, c terminus: a fixed tail appended
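Note: 24-mer peptide tiles fused after GFP, lentivirally expressed, FACS-sorted into six equal bins by GFP/DsRed ratio, decoded by Illumina sequencing, PSI is the read-weighted mean bin number.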

Sequence	protein stability index [1]	protein stability index [2]	protein stability index (treatment: DMSO, c terminus: native)	protein stability index (treatment: MLN4924 1 uM, 8 h, c terminus: native)
LPLRVSFCPLSLWRWQLYAAQSTK [CLPTM1]	2.31 ± 0.29	2.24 ± 0.7		
LPPNNSYADFERFSKVLEEAAAAE [DAPK3]	4.95 ± 0.57	5.07 ± 0.058		
LQARERGEEQVELSTIEELIKDAI [C2CD2L]	4.14 ± 0.084	4.13 ± 0.19		
LQGVRLSENVVNRMKEPSSPPPAP [CHCHD6]	4.62 ± 0.32	4.939 ± 0.047		
LQHMKAVQADQERERQRRLEVERE [LRRC59]	5.24 ± 0.33	5.09 ± 0.27		
LQRHADEFLLDLGHHERSIMTDLY [FUT8]	2.55 ± 0.21	2.69 ± 0.26		
LQRLRENAAHLGDKRRDLAHLAAE [TRIM39]	4.13 ± 0.31	3.82 ± 0.28		
LQSEPHRAGVQWKFAGSFYFAITV [KCNK9]	3.47 ± 0.43	2.82 ± 0.81		
LQYILAQIGFSVGLGNIWRFPYLC [SLC6A17]	2.27 ± 0.16	2.88 ± 0.31		
LRALREKLFAHSSDLLSEFKKHDA [PPEF2]	2.1 ± 0.33	2.29 ± 0.42		
LRRRLEELQQELSLKDQERVAEVS [LRRC45]	4.07 ± 0.42	3.89 ± 0.32		
LSLCICGTAITSQYLAERYKVNTP [SLC35F2]	2.83 ± 0.51	2.63 ± 0.42		
LSLLDNNIPGNSTLITAVELERFV [FBXO33]	2.44 ± 0.95	2.36 ± 0.15		
LSLPYLPSGTPELEVPKPGQPSEP [CHIT1]	5.09 ± 0.22	5.21 ± 0.15		
LSPPEQAAQPMQPLPESLASLHPS [PLAGL1]	5.12 ± 0.16	4.93 ± 0.31		
LSPVLESPRDLQFSEIRETSAKVN [TNXB]	4.9 ± 0.12	5.02 ± 0.34		
LSQLSSHDPLWRRHCKKYWLISEE [FBXO3]	2.54 ± 0.069	2.67 ± 0.4		
LSRTNEELLWKLQTGDPTSPIKLS [MTUS2]	3.49 ± 0.12	3.35 ± 0.25		
LSTNDKTIKLWKITERDKRPEGYN [PPP2R2C]	3.6 ± 0.28	3.79 ± 0.61		
LSWLVWLLLLLLASLLPSARLASP [ADAMTS4]	2.99 ± 0.65	2.5 ± 0.3		
LTGVLCSYPNPNEDKCPGNYTNPL [TMEM192]	3.26 ± 0.19	3.36 ± 0.25		
LTRAGMSYYNSPGLHVQHMGTSHG [CCDC6]	2.67 ± 0.2	2.81 ± 0.12		
LVPKTHLMSESEWRNLGVQQSQGW [CKS1B]	2.64 ± 0.32	2.86 ± 0.2		

Sequence	protein stability index [1]	protein stability index [2]	protein stability index (treatment: DMSO, c terminus: native)	protein stability index (treatment: MLN4924 1 uM, 8 h, c terminus: native)
LVSVYPDKYCPLLIKEGGMPLLRD [ZER1]	2.38 ± 0.23	2.42 ± 0.29		
LYKALGAQDLTEAEGWHFFCFQGE [SAT2]	2.5 ± 0.27	2.29 ± 0.43		
MAAAAEERMAEEGGGGQGDGGSSL [FBXO28]	5.45 ± 0.29	5.57 ± 0.33		
MAAGNTVIAKPSELTSVTAWMLCK [ALDH8A1]	2.44 ± 0.1	2.35 ± 0.23		
MASPPRCSPTAHDRECKLPPPSAP [WDR88]	4.67 ± 0.25	4.83 ± 0.24		
MATYLRYVRRLDFFEKPDYDYLRK [CSNK1G3]	2.31 ± 0.42	2.32 ± 0.12		
MCFGPKKVKPAEAETAGAIMAFFL [SLC29A1]	2.42 ± 0.45	2.13 ± 0.21		
MDSFKVVLEGPAPWGFRLQGGKDF [PDLIM7]	2.1 ± 0.24	2.52 ± 0.23		
MEHALREKAKAFWAMRRSYEAIAK [TRIM35]	2.46 ± 0.12	2.59 ± 0.45		
MEKFREDEGFIKEEERPLPEKEYQ [KCNA1]	5.38 ± 0.32	5.53 ± 0.31		
MERPLCSHLCSCLAMLALLSPLSL [LOXL2]	3.16 ± 0.19	3.46 ± 0.36		
MHLKPYWKLQKKEHPPEVSRETQR [FBXO34]	3.58 ± 0.18	3.78 ± 0.33		
MIPGFRDLTSEDQIVLLKSSAIEV [VDR]	2.33 ± 0.25	2.43 ± 0.18		
MKIFREKIEDFREEMWTFRGKIHA [CCDC70]	2.07 ± 0.26	2.39 ± 0.43		
MKSCKNLKGGLQEVAEQLELERIG [CNOT7]	4.39 ± 0.14	4.47 ± 0.18		
MLIEELYAFMPARSQDPKKPSRV [CBY2]			2.57 ± 0.46	2.55 ± 0.17
MLTLPFDESVVMPESQMCRKFSRE [NEUROD6]	3.65 ± 0.15	3.77 ± 0.15		
MMCVAERTYKQRFLFAKLFSHITS [PHTF1]	1.79 ± 0.71	2.24 ± 0.47		
MMHGLKPLSLVKRTDLKDLIIFDK [CEP70]	2.37 ± 0.12	2.92 ± 0.47		
MNELQHDLDVVSDALAKVSRKPSI [TPH1]	4.27 ± 0.22	4.42 ± 0.32		
MNHFTVNLNREEKIIREIDFYRED [TRIM55]	3.46 ± 0.4	3.61 ± 0.33		
MNTNSKEVLSLGVQVPEAWEELLT [ZSCAN9]	3.08 ± 0.47	3.52 ± 0.34		
